Test results published in patent publication US20230303690A1 (published 2023).
Blank lines part the entries; values can stand above or below the binder they belong to.

Target: human LAG3 expressed on cells (human) (UniProt P18627)
Experiment: cell-based or functional assay

human LAG3 expressed on cells (human), sequence (P18627 23-525): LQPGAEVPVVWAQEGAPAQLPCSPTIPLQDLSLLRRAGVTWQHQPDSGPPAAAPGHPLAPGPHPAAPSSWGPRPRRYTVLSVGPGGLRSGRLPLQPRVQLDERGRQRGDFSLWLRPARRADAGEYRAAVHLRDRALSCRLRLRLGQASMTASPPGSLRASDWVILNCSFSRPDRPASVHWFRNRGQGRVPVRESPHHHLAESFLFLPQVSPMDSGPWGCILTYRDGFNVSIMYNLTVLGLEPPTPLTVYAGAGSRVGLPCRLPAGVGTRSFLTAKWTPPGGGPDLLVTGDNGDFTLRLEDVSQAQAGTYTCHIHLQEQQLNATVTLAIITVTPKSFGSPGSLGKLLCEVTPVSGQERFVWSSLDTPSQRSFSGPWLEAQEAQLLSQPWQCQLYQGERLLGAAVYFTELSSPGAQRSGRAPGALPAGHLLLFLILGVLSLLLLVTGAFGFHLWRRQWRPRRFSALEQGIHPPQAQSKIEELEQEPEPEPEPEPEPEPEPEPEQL

Efficacy (Normalized to BMS): 102% | IL-2, % of BMS, at 0.001016105 ug/mL: 0.000639% | IL-2, % of BMS, at 0.003048316 ug/mL: 5.71% | IL-2, % of BMS, at 0.009144947 ug/mL: 7.44% | IL-2, % of BMS, at 0.027434842 ug/mL: 8.91% | IL-2, % of BMS, at 0.082304527 ug/mL: 11.7% | IL-2, % of BMS, at 0.24691358 ug/mL: 12.1% | IL-2, % of BMS, at 0.740740741 ug/mL: 28.9% | IL-2, % of BMS, at 2.222222222 ug/mL: 62.8% | IL-2, % of BMS, at 6.666666667 ug/mL: 93.2% | IL-2, % of BMS, at 20 ug/mL: 103% | Jurkat T-hLAG3 Assay EC50: 18.4 nM
B1: sdAb fusion 25-17-3 (Fc fusion, not shown: a dimerising Fc or GST)
chain: QLQLVESGGGLVQAGGSLRLSCAASGSIESFSFMGWYRQAPGKQRELVAGFTGAASLSFSTYTDAVKGRFTISRDNAKNTVYLQMNSLKPEDTAVYFCNVDPWSQSWPGRYWGQGTQVTVSSGGGGSGGGGSGGGGSQLQLVESGGGLVQPGGSLRLSCAASGLTLDGYAIGWFRQAPGKEREGLACISGSDGSTHYLDSVKGRFTISRDNGKNTMALQMNSLQFGDTAIYYCAARRGSCSGSWTYWGQGTQVTVSSEPKSCDKTHTCPPCPAPELLG

Efficacy (Normalized to BMS): 101% | IL-2, % of BMS, at 0.001016105 ug/mL: 0.000334% | IL-2, % of BMS, at 0.003048316 ug/mL: -15.6% | IL-2, % of BMS, at 0.009144947 ug/mL: -12.5% | IL-2, % of BMS, at 0.027434842 ug/mL: 20.8% | IL-2, % of BMS, at 0.082304527 ug/mL: -0.802% | IL-2, % of BMS, at 0.24691358 ug/mL: 20.9% | IL-2, % of BMS, at 0.740740741 ug/mL: 59.4% | IL-2, % of BMS, at 2.222222222 ug/mL: 83.2% | IL-2, % of BMS, at 6.666666667 ug/mL: 88.3% | IL-2, % of BMS, at 20 ug/mL: 96.6% | Jurkat T-hLAG3 Assay EC50: 5.13 nM
B2: sdAb fusion 25-2015-2 (Fc fusion, not shown: a dimerising Fc or GST)
chain: QLQLVESGGGLVQAGGSLRLSCAASGSIESFSFMGWYRQAPGKQRELVAGFTGAASLSFSTYTDAVKGRFTISRDNAKNTVYLQMNSLKPEDTAVYFCNVDPWSQSWPGRYWGQGTQVTVSSGGGGSGGGGSQLQLVESGGGLAQTGGSLRLSCAAAGFTFDDTATGWFRQAPGKNREGVACISSSDGRIHYIDSAKGRFTISKDNAKKTVYLQMDSLKPEDTAVYYCAAARKGSTDCQGAIWGSWGQGTQVIVSSEPKSCDKTHTCPPCPAPELLG

Efficacy (Normalized to BMS): 102% | IL-2, % of BMS, at 0.001016105 ug/mL: -0.00048% | IL-2, % of BMS, at 0.003048316 ug/mL: -2.52% | IL-2, % of BMS, at 0.009144947 ug/mL: -0.621% | IL-2, % of BMS, at 0.027434842 ug/mL: 12% | IL-2, % of BMS, at 0.082304527 ug/mL: -7.68% | IL-2, % of BMS, at 0.24691358 ug/mL: -2.21% | IL-2, % of BMS, at 0.740740741 ug/mL: 16.4% | IL-2, % of BMS, at 2.222222222 ug/mL: 77.7% | IL-2, % of BMS, at 6.666666667 ug/mL: 85.1% | IL-2, % of BMS, at 20 ug/mL: 111% | Jurkat T-hLAG3 Assay EC50: 14 nM
B3: sdAb fusion 25-17-2 (Fc fusion, not shown: a dimerising Fc or GST)
chain: QLQLVESGGGLVQAGGSLRLSCAASGSIESFSFMGWYRQAPGKQRELVAGFTGAASLSFSTYTDAVKGRFTISRDNAKNTVYLQMNSLKPEDTAVYFCNVDPWSQSWPGRYWGQGTQVTVSSGGGGSGGGGSQLQLVESGGGLVQPGGSLRLSCAASGLTLDGYAIGWFRQAPGKEREGLACISGSDGSTHYLDSVKGRFTISRDNGKNTMALQMNSLQFGDTAIYYCAARRGSCSGSWTYWGQGTQVTVSSEPKSCDKTHTCPPCPAPELLG

Efficacy (Normalized to BMS): 106% | IL-2, % of BMS, at 0.001016105 ug/mL: 0.0147% | IL-2, % of BMS, at 0.003048316 ug/mL: 3.76% | IL-2, % of BMS, at 0.009144947 ug/mL: 5.39% | IL-2, % of BMS, at 0.027434842 ug/mL: 11.1% | IL-2, % of BMS, at 0.082304527 ug/mL: 6.04% | IL-2, % of BMS, at 0.24691358 ug/mL: 17.2% | IL-2, % of BMS, at 0.740740741 ug/mL: 62% | IL-2, % of BMS, at 2.222222222 ug/mL: 114% | IL-2, % of BMS, at 6.666666667 ug/mL: 123% | IL-2, % of BMS, at 20 ug/mL: 124%
B4: sdAb fusion 25-27-2 (Fc fusion, not shown: a dimerising Fc or GST)
chain: QLQLVESGGGLVQAGGSLRLSCAASGSIESFSFMGWYRQAPGKQRELVAGFTGAASLSFSTYTDAVKGRFTISRDNAKNTVYLQMNSLKPEDTAVYFCNVDPWSQSWPGRYWGQGTQVTVSSGGGGSGGGGSQVQLVESGGGLVQPGGSLRLSCAASGFTLDYYAIGWFRQAPGKEREGVSCIRSSDGSTYYADSVKGRFTISSDNTKNTVYLQMNSLKPEDTAVYYCATDRYSDCRGPYENWGQGTQVTVSSEPKSCDKTHTCPPCPAPELLG

IL-2, % of BMS, at 0.005080526 ug/mL: 0.0212% | IL-2, % of BMS, at 0.015241579 ug/mL: 5.32% | IL-2, % of BMS, at 0.045724737 ug/mL: 2.83% | IL-2, % of BMS, at 0.137174211 ug/mL: 9.41% | IL-2, % of BMS, at 0.411522634 ug/mL: 15.3% | IL-2, % of BMS, at 1.234567901 ug/mL: 22.8% | IL-2, % of BMS, at 3.703703704 ug/mL: 28.6% | IL-2, % of BMS, at 11.11111111 ug/mL: 34.6% | IL-2, % of BMS, at 33.33333333 ug/mL: 36.9% | IL-2, % of BMS, at 100 ug/mL: 37%
B5: sdAb No. 2018 (VHH, part only)
VHH: QVQLVESGGGLVQPGGSLKLSCTASGFTLDYYAIAWFRQAPGKEREAVSCISSSDGSTRYADSVKGRFTISRDNAKNTVYLQMNSLKPEDTAVYYCAADPYGDCRGPYDYWGQGTQVTVSS
modifications: possible Fc not stated
